Assay results as given in paper PMC12167710 (Nature Biotechnology, 2024).

These binders were tested against T1, receptor-binding domain (RBD) of the wild-type SARS-CoV-2 spike protein (SARS-CoV-2, UniProt P0DTC2 333-527) (assay: BLI). Conditions: both partners purified.
T1 construct: also called SARS-CoV-2 RBD

Binder | Kd
hRBD11 (antibody, V domains shown) VH: QVQLQESGPGLVKPSQTLSLTCTVSGGSISSGGYYWSWIRQHPGKGLEWIGYIFYSGSTYYNPSLKSRVIISVDTSKNQFSLKLSSVTAADTAAYYCARVNRVYGSGSYSLDPWGQGTLVTVSS VL: QSALTQPASVSGSPGQSITISCTGTSRDVGDYDYVSWYQQHPGKAPKLMIYEGSERPSGVSNRFSGSKSGNTASLTISGLQAEDEADYYCCSYTGSSTSFLFGTGTKVTVL | 8.87 nM
hRBD10 (antibody, V domains shown) VH: EVQLVESGGGLVQPGGSLRLSCSASGFTFTTYNMNWVRQAPGKGLEWVSYISSSSSTIYYADSVEGRFTISRDNAKNSLYLQMNSLRDEDTAVYYCARGVGATSYYYHGMDVWGQGTTVSVSS VL: DIQMTQSPSSLSASVGDRVTITCRASQSIYSYLNWYKQKAGKAPKLLIYAASSLQSGVPSRFSGSGSGTDFTLTIISLQPEDFATYYCQQSYSTPPTFGQGTKVEIK | 0.173 nM

These binders were tested against T1, receptor-binding domain (RBD) of the … (assay: ELISA). Conditions: both partners purified.

Binder | EC50
mRBD24 (antibody, V domains shown) VH: EVQLQQSGPDLVKPGASVKISCKASGYTFTDYYMNWVKQSHGKSLEWIGDINPNNGGTYYNQKFKGKATLTVDKSSSTAYMELRSLTSEDSAVYYCARQLRRWGQGTLVTVSA VL: not shown | 0.0635 nM
mRBD12 (antibody, V domains shown) VH: QVQLQQSGAELARPGASVKLSCKASGYTFTSYGISWVKQRTGQGLEWIGEIYPRSGNTYYNEKFKGKATLTADKSSSTAYMEVRSLTSEDSAVYFCAREGGYGYVMDYWGQGTSVTVSS VL: DIQMTQTTSSLSASLGDRVTISCRASQDISNYLNWYQQKPDGTVKLLIYYTSRLHSGVPSRFSGSGSGTDYSFTISNLEQEDIATYFCQQGNTLPWTFGGGTKLEIK | 0.109 nM
mRBD10 (antibody, V domains shown) VH: QVQLKQSGAELVRPGASVKLSCKASGYTFTDYYINWVKQRPGQGLEWIARIYPGSGNTYYNEKFKGKATLTAEKSSSTAYMQLSSLTSEDSAVYFCARDYGSSYVDYFDYWGQGTTLTVSS VL: DIQMTQTTSSLSASLGDRVTISCRASQDISNYLNWYQQKPDGTVKLLIYYTSRLHSGVPSRFSGSGSGTDYSLTISNLEQEDIATYFCQQGNTLPLTFGAGTKLELK | 0.189 nM
mRBD17 (antibody, V domains shown) VH: QIQLVQSGPELKKPGETVKISCKASGYTLTEYPMHWVKQAPGKGFKWMGMIYTDTGEPTYAEEFKGRFAFSLETSASTAYLQINNLKNEDTATYFCVRAGPSFAMDYWGQGTSVTVSS VL: DIQMTQTTSSLSASLGDRVTISCRASQDISNYLNWYQQKPDGTVKLLIYYTSRLHSGVPSRFSGSGSGTDYSLTISNLEQEDFATYFCQQGNTLPYTFGGGTKLEIK | 14.8 nM
mRBD1 (antibody, V domains shown) VH: QVQLQQPGAELVKPGASVKVSCKASGYTFTSYWMHWVKQRPGQGLEWIGRIHPSDSDTNYNQKFKGKATLTVDKSSNTAYMQLSSLTSEDSAVYYCAILDCYWYFDVWGTGTTVTVSS VL: QIVLTQSPAIMSASPGEKVTMTCSASSSVSYMYWYQQKPGSSPRLLIYDTSNLASGVPVRFSGSGSGTSYSLTISRMEAEDAATYYCQQWSSYPLTFGAGTKLELK | 0.134 nM
mRBD5 (antibody, V domains shown) VH: QVQLQQPGAELVKPGASVKVSCKASGYTFTSYWMHWVKQRPGQGLEWIGRIHPSDSDTNYNQKFKGKATLTVDKSSSTAYMQLSSLTSEDSAVYYCAIDWDGDYWGQGTTLTVSS VL: DIVMSQSPSSLAVSAGEKVTMSCKSSQSLLNSRTRKNYLAWYQQKPGQSPKLLIYWASTRESGVPDRFTGSGSGTDFTLTISSVQAEDLAVYYCKQSYNLWTFGGGTKLEIK | 0.321 nM
mRBD6 (antibody, V domains shown) VH: QVQLQQPGAELVKPGASVKVSCKASGYTFTSYWMHWVKQRPGQGLEWIGRIHPSDSDTNYNQKFKGKATLTVDKSSSTAYMQLSSLTSEDSAVYYCAMDWDVDYWGQGTTLTVSS VL: DIVMSQSPSSLAVSAGEKVTMSCKSSQSLLNSRTRKNYLAWYQQKPGQSPKLLIYWASTRESGVPDRFTGSGSGTDFTLTISSVQAEDLAVYYCKQSYNLLTFGAGTKLELK | 0.393 nM
mRBD25 (antibody, V domains shown) VH: QVQLQQSGPELVKPGASVKISCKASGYAFSNSWMNWVKQRPGKGLEWIGRIYPGDGDTNYNGKFKGKATLTADKSSSTAYMQLSSLTSEDSAVYFCANYYGDYWGQGTTLTVSS VL: QIVLTQSPALMSASPGEKVTMTCSASSSVSYMYWYQQKPRSSPKPWIYLTSNLASGVPARFSGSGSGTSYSLTISSMEAEDAATYYCQQWSSNPYTFGGGTKLEIK | 0.0815 nM
mRBD18 (antibody, V domains shown) VH: QIQLVQSGPELKKPGETVKISCKASGYTFTDYPMHWVQQAPGKGFKWMGMIYTDTGEPTYAEEFKGRFAFSLETSASTAYLQINNLKNEDTATYFCVRWAGYFDYWGQGTTLTVSS VL: DIVLTQSPASLAVSLGQRATISCRASESVDSYGNSFMDWYQQKPGQPPKLLIYRASNLESGIPARFSGSGSRTDFTLIINPVEADDVATYYCQQSNEHPLTFGAGTKLELK | 0.222 nM
mRBD2 (antibody, V domains shown) VH: QVQLQQSGAELARPGASVKLSCKASGYTFISNGISWVKQRTGQGLEWIGEIYPRNGNTYYNEKFKGKATLTADKSSSTAYMELRSLTSEDSAVFFCARDYYYGSFDYWGQGTTLTVSS VL: DIQMTQSPSSLSASLGERVSLTCRASREISGYLTWLQQKPDGTIKRLIYAASTLDSGVPKRFSGSRSGSDYSLTISSLESEDFADYYCLQYASYPWTFGGGTKLEIK | 0.0896 nM
mRBD16 (antibody, V domains shown) VH: QIQLVQSGPELKKPGETVKISCKASGYTLTEYPMHWVKQAPGKGFKWMGMIYTDTGEPTYAEEFKGRFAFSLETSASTAYLQINNLKNEDTATYFCVRAGPSFAMDYWGQGTSVTVSS VL: NIVLTQSPASLAVSLGQRATISCRASESVDSYGNSFMHWYQQKPGQPPKLLIYLASNLESGVPARFSGSGSRTDFTLTIDPVEADDAATYYCQQNNEDPYTFGGGTKLEIK | 0.0895 nM
mRBD22 (antibody, V domains shown) VH: QIQLVQSGPELKKPGETVKISCKASGYTFTEYPMHWVKQAPGKGFKWMGMIYTDTGEPTYAEEFKGRFAFSLETSASTAYLQINNLKNEDTATYFCVRGGYYYFDYWGQGTTLTVSS VL: NIVLTQSPASLAVSLGQRATISCRASESVDSYGNSFMHWYQQKPGQPPKLLIYLASNLESGVPARFSGSGSRTDFTLTIDPVEADDAATYYCQQNNEDPWTFGGGTKLEIK | 0.218 nM
mRBD21 (antibody, V domains shown) VH: QIQLVQSGPELKKPGETVKISCKASGYTFTKYPMHWVKQAPGKGFKWMGMIYTDTGEPTYAEEFKGRCAFSLETSASTAYLQINNLKNEDTATYFCVRWGGSYALDYWGQGTSVTVSS VL: DIVLTQSPASLAVSLGQRATISCRASESVDSYGNSFMHWYQQKPGQPPKLLIYRASNLESGIPARFSGSGSRTDFTLTINPVEADDVATYYCQQSNEDPLTFGAGTKLELK | 0.18 nM
mRBD11 (antibody, V domains shown) VH: QVQLQQSGAELARPGASVKLSCKASGYTFISNGISWVKQRTGQGLEWIGEIYPRNGNTYYNEKFKGKATLTADKSSSTAYMELRSLTSEDSAVFFCARDYYYGNFDYWGQGTTLTVSS VL: NIVLTQSPASLAVSLGQRATISCRASESVDSYGNSFMHWYQQKPGQPPKLLIYLASNLESGVPARFSGSGSRTDFTLTIDPVEADDAATYYCQQNNEDPYTFGGGTKLEIK | 82.3 nM
mRBD19 (antibody, V domains shown) VH: QIQLVQSGPELKKPGETVKISCKASGYTFTEYPMHWVKQAPGKGFKWMGMIYTDTGEPTYAEEFKGRFAFSLETSASTAYLQINNLKNEDTATYFCVRGGPYYAMDYWGQGTSVTVSS VL: NIVLTQSPASLAVSLGQRATISCRASESVDSYGNSFMHWYQQKPGQPPKLLIYLASNLESGVPARFSGSGSRTDFTLTIDPVEADDAATYYCQQNNEDPWTFGGGTKLEIK | 0.123 nM
mRBD15 (antibody, V domains shown) VH: QIQLVQSGPDLKKPGETVKISCKASGYTFTEYPMHWVKQAPGKGFQWMGMIYTDTGEPTYAEEFKGRFAFSLETSASTAYLQINNLKNEDTSTYFCVRAGPSYAMDYWGQGTSVTVSS VL: NIVLTQSPASLAVSLGQRATISCRASESVDSYGNSFMHWYQQKPGQPPKLLIYLASNVESGVPARFSGSGSRTDFTLTIDPVEADDAATYYCHQINEDPYTFGGGTKLEIK | 0.124 nM
mRBD20 (antibody, V domains shown) VH: QIQLVQSGPELKKPGETVKISCKASGYTLTEYPMHWVKQAPGKGFKWMGMIYTDTGEPTYAEEFKGRFAFSLETSASTAYLQINNLKNEDTATYFCVRAGPSYAMDYWGQGTSVTVSS VL: NIVLTQSPASLAMSLGQRATISCRASESVDSYGNSFMHWYQLKPGQPPKLLIYLASNLESGVPARFSGSGSRTDFTLTIDPVEADDAATYYCQQNNEDPYTFGGGTKLEIK | 0.153 nM
mRBD23 (antibody, V domains shown) VH: QVQLQQPGAELVRPGSSVKLSCKASGYTFTSYWMHWVKQRPIQGLEWIGNIDPSDSETHYNQKFKDKATLTVDKSSSTAYMQLSSLTSEDSAVYYCTRPGSLRSRGWYFDVWGTGTTVTVSS VL: DIVMTQAAPSVPVTPGESVSISCRSSKSLLHSNGNTYLYWFLQRPGQSPQLLIYRMSNLASGVPDRFSGSGSGTAFTLRISRVEAEDVGVYYCMQHLEYPYTFGGGTKLEIK | 0.304 nM
mRBD3 (antibody, V domains shown) VH: QVQLQQPGAELVMPGTSVKLSCKASGYIFTSYWMHWVKQRPGQGLEWIGEIDPSDNYTNYNQKFKGKSTLTVDKSSSTAYMQLSSLTSEDSAVYYCARGGLYYYGSSYDAMDYWGQGTSVTVSS VL: DIVMTQAAPSVPVTPGESVSISCRSSKSLLHSNGNTYLYWFLQRPGQSPQLLIYRMSNLASGVPDRFSGSGSGTAFTLRISRVEAEDVGAYYCMQHLEYPFTFGSGTKLEIK | 0.102 nM
mRBD4 (antibody, V domains shown) VH: QVQLQQPGAELVMPGASVKLSCKASGYTFTSYWMHWVKQRPGQGLEWIGEIDPSDSYTNYNQKFKDKSTLTVDKSSSTAYMQLSSLTSEDSAVYYCARGGVYYYGSSHYFDYWGQGTTLTVSS VL: DIVMTQAAPSVPVTPGESVSISCRSSKSLLHSNGNTYLYWFLQRPGQSPQFLIYRMSNLASGVPDRFSGSGSGTAFTLRISRVEAEDVGVYYCMQHLEYPFTFGSGTKLEIK | 0.202 nM
